According to US20140193915, “COMPOSITIONS AND METHODS FOR CUSTOM SITE-SPECIFIC DNA RECOMBINASES” (Monsanto Technology, LLC, published 2014):

T1: sN-TALER IV-2 (GinH106Y-TALE13) (synthetic)
T1 chain: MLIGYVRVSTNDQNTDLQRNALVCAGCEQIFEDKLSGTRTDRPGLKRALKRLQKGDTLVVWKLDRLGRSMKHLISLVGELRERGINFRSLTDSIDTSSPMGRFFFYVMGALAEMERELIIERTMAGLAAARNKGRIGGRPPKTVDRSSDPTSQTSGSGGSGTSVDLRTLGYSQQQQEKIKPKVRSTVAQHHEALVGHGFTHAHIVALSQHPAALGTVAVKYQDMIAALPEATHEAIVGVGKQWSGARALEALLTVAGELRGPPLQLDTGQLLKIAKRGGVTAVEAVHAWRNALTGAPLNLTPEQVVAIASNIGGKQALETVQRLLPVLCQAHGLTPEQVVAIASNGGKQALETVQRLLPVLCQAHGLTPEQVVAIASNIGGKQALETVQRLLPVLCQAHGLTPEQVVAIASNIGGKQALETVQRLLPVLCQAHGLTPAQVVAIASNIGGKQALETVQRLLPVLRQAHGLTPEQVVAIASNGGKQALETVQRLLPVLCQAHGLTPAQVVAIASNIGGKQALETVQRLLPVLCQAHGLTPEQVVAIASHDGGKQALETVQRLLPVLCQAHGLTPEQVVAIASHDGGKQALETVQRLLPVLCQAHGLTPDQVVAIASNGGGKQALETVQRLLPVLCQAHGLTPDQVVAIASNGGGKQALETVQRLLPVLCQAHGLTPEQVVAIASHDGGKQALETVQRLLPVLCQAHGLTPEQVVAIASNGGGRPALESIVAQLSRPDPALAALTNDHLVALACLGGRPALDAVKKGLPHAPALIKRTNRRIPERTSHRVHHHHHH

T2: pN-TALER IV-1-EE2 (GinL7C7-EE2-TALE13) (synthetic)
T2 chain: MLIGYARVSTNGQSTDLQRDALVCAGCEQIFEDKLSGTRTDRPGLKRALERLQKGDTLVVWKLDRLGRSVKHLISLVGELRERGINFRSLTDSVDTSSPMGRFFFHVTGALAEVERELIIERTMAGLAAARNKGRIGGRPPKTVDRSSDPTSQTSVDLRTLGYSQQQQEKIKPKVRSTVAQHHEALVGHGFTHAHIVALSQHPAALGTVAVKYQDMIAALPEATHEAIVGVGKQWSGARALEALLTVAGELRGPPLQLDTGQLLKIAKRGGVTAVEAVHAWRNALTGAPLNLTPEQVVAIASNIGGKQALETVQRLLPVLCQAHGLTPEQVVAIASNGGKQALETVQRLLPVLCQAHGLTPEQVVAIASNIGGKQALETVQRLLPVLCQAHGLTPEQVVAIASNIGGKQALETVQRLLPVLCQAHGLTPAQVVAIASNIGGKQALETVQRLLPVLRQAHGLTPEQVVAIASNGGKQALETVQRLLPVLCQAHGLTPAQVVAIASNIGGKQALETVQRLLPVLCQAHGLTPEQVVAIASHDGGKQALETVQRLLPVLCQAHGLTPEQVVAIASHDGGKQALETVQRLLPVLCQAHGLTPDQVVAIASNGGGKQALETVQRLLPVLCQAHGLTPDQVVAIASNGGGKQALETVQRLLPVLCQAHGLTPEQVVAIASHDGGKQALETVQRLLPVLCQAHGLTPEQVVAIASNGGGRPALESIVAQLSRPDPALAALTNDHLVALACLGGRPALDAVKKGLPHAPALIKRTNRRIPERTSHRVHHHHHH

T3: sN-TALER IV-1 (GinH106Y-TALE13) (synthetic)
T3 chain: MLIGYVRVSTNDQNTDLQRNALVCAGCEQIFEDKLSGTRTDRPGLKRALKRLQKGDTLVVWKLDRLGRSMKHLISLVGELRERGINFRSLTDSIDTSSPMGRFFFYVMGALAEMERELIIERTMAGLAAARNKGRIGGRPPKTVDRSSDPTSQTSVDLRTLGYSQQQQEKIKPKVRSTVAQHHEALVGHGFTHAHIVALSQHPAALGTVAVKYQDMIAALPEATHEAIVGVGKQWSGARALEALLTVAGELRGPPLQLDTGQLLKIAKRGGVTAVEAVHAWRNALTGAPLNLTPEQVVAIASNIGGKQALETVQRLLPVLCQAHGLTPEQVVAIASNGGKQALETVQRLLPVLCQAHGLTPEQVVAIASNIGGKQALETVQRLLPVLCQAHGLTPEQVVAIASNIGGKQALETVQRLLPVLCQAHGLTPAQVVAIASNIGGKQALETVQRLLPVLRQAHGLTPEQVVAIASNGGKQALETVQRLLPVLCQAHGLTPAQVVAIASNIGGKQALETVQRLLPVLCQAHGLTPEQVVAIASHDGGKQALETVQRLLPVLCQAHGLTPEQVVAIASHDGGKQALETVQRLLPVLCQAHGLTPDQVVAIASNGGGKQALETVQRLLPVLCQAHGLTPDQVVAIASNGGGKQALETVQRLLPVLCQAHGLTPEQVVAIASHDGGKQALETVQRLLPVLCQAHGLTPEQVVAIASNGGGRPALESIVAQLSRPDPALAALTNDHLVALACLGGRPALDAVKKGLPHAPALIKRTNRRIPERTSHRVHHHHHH


Assays:
[1] = target: T1, sN-TALER IV-2 (GinH106Y-TALE13); experiment: cell_activity; E. coli; conditions: tags: 6-His
Procedure: (§1) To test for recombination, E. coli DH5alpha cells were co-transformed with different combinations of TALER expression construct and TALER reporter construct pairs (Tables 6 and 7). The N-TALER expression and reporter constructs were in an approximate 1:1 mass ratio during the transformation. The co-transformed bacteria were plated on media with chloramphenicol, kanamycin, and X-gal then incubated at 37° C. for 18 to 36 hours. Control samples consisted of transformations using the reporter construct alone. Control transformants were similarly plated. The bacterial transformation protocol was either heat shock or electroporation per standard molecular biology techniques.

[2] = target: T2, pN-TALER IV-1-EE2 (GinL7C7-EE2-TALE13); experiment: cell_activity; E. coli; conditions: tags: 6-His
Procedure: as §1
Two additional N-TALERs, based on N-TALER IV-1, were constructed wherein the GinH106Y recombinase catalytic domain was replaced with either the GinL7C7-EE2 catalytic domain or the GinL7C7-EE3 permissive recombinase catalytic domain. These N-TALERs were labeled pN-TALER IV-1-EE2 (SEQ ID NO:41) and pN-TALER IV-1-EE3 (SEQ ID NO:45), respectively. pN-TALER IV-1-EE2 was tested in combination with seventeen N-TALER reporter constructs and pN-TALER IV-1-EE3 was tested with three reporter constructs (Table 10).

[3] = target: T3, sN-TALER IV-1 (GinH106Y-TALE13); experiment: cell_activity; E. coli; conditions: tags: 6-His; chain copies: 2 per site, tetramer in synapsis (stated)
Procedure: as §1

[4] = target: T3, sN-TALER IV-1 (GinH106Y-TALE13); experiment: cell_activity; E. coli; sequenced; conditions: tags: 6-His; chain copies: 2 per site, tetramer in synapsis (stated)
Procedure: as §1
PCR was used to confirm that the predicted recombination had occurred in colonies which were white or sectored. PCR primers were designed so that a PCR product of approximately 877 bp (depending on the length of the spacers) would be produced from the non-recombined reporter constructs, and a PCR product of approximately 470 bp would be produced from reporter constructs that had undergone N-TALER-mediated recombination. Standard colony PCR was performed on white, blue, and sectored colonies from several plates representing different pairs of N-TALER expression construct and reporter construct co-transformation combinations.
To confirm that the recombination occurred as predicted, several of the PCR products were sequenced. Sequencing results for PCR products generated from white colonies from the sN-TALER IV-1 and Gin18TALE+1; sN-TALER IV-1 and Gin20TALE+0; or sN-TALER IV-1 and Gin20TALE+10 reporter constructs are shown in FIG. 7. No mismatches were detected relative to the predicted recombinase core sequence in any of the PCR products sequenced thereby confirming a base-perfect recombination with N-TALERs (the few single-nucleotide mismatches detected in the sN-TALER IV-1 and Gin20TALE+0 combination were rechecked and consequently dismissed as sequencing error).

[5] = target: T2, pN-TALER IV-1-EE2 (GinL7C7-EE2-TALE13); experiment: cell_activity; E. coli; conditions: tags: 6-His
Text: To determine how much of the Gin20 sequence is required for recombination when the central sequence is maintained at a permitted length, N-TALER reporters were generated with a 20 bp recombinase central sequence between the TALE binding sites, where either the central 12 bp, or the central 10 bp, or the central 8 bp of the recombinase core sequence were held constant, and the remaining nucleotides were different from the Gin sequence. The N-TALER reporter with 12 bp was designated R45, the N-TALER reporter with 10 bp was designated R46, and the N-TALER reporter with 8 bp was designated R47. A N-TALER reporter with a 10 bp site 1 and a 12 bp site 2 was designated R46B, and a N-TALER reporter with a T and an A flanking the central AT di-nucleotide was designated R48 (see Table 33). The various reporters, including the pSC101 Gin20TALE13+0 were co-transformed with either sN-TALER-IV-1 or pN-TALER-IV-1 and recombination, as determined by colony color, was scored (Table 33). For purposes of comparison, the GinE site that was used in the generation of the GinL7C7-EE2 recombinase domain (Gersbach et al., 2010) was also included.
To confirm that white colonies resulted from recombination, the colonies were analyzed by colony PCR and sequencing of the PCR product. For the reporter that retained 12 bp from the Gin site, 8 of 8 colonies analyzed had the predicted recombination product for both the sN-TALER-IV-1 chimera and the pN-TALER-IV-1chimera (16 colonies total analyzed, 8 each). Likewise, for the reporter that retained 8 bp from the Gin site co-transformed with the pN-TALER-IV-1 chimera, 14 of 14 colonies analyzed had the predicted recombination product.

Row | Binder | activity [1] [score] | activity [2] [score] | activity [3] [score] | activity [4] [score] | activity [5] [score]
1 | Gin20TALE+4 (dsDNA) DNA 1: AGAAGGTATTTATATATATCCAAAACCATGGTTTACAGGCTATATAAATACCTTCT DNA 2: AGAAGGTATTTATATAGCCTGTAAACCATGGTTTTGGATATATATAAATACCTTCT | 4 | 1.5 | – | – | –
2 | Gin20TALE+2 (dsDNA) DNA 1: AGAAGGTATTTATATATCCAAAACCATGGTTTACAGTATATAAATACCTTCT DNA 2: AGAAGGTATTTATATACTGTAAACCATGGTTTTGGATATATAAATACCTTCT | – | 1 | 3 | – | –
3 | Gin20TALE+3 (dsDNA) DNA 1: AGAAGGTATTTATATAATCCAAAACCATGGTTTACAGGTATATAAATACCTTCT DNA 2: AGAAGGTATTTATATACCTGTAAACCATGGTTTTGGATTATATAAATACCTTCT | 3 | 1 | 3 | – | –
4 | Gin20TALE+6 (dsDNA) DNA 1: AGAAGGTATTTATATAGTTATCCAAAACCATGGTTTACAGGACGTATATAAATACCTTCT DNA 2: AGAAGGTATTTATATACGTCCTGTAAACCATGGTTTTGGATAACTATATAAATACCTTCT | – | 2 | – | – | –
5 | Gin20TALE+10 (dsDNA) DNA 1: AGAAGGTATTTATATAGGCACTTATCCAAAACCATGGTTTACAGGACCACGGTATATAAATACCTTCT DNA 2: AGAAGGTATTTATATACCGTGGTCCTGTAAACCATGGTTTTGGATAAGTGCCTATATAAATACCTTCT | 1 | 1 | – | 1.5 | –
6 | R47 (8bp) (dsDNA) DNA 1: AGAAGGTATTTATATCTCTGACCATGGTCACACTTATAAATACCTTCT DNA 2: AGAAGGTATTTATAAGTGTGACCATGGTCAGAGATATAAATACCTTCT | – | – | – | – | 1.5
7 | Gin20TALE+1 (dsDNA) DNA 1: AGAAGGTATTTATATTCCAAAACCATGGTTTACAGATATAAATACCTTCT DNA 2: AGAAGGTATTTATATCTGTAAACCATGGTTTTGGAATATAAATACCTTCT | 1 | 1 | 2 | – | –
8 | Gin20TALE+9 (dsDNA) DNA 1: AGAAGGTATTTATATAGGCATTATCCAAAACCATGGTTTACAGGACACGGTATATAAATACCTTCT DNA 2: AGAAGGTATTTATATACCGTGTCCTGTAAACCATGGTTTTGGATAATGCCTATATAAATACCTTCT | – | 2 | 2 | – | –
9 | Gin20TALE+7 (dsDNA) DNA 1: AGAAGGTATTTATATAGGTTATCCAAAACCATGGTTTACAGGACGGTATATAAATACCTTCT DNA 2: AGAAGGTATTTATATACCGTCCTGTAAACCATGGTTTTGGATAACCTATATAAATACCTTCT | – | 2.5 | – | – | –
